Columns and labels:
[1] = test system: Fer (mouse); assay: phosphorylation enrichment, bacterial display (enrichment ratio); higher = better substrate or ligand; peptides without Tyr show the background
[2] = target: Fyn (UniProt P06241); assay: as above
[3] = target: EPHB1 (UniProt P54762); assay: as above
[4] = target: Hck (UniProt P08631); assay: as above
[5] = target: Fes (UniProt P07332); assay: as above
[6] = target: FGFR1 (UniProt P11362); assay: as above
[7] = target: EPHB2 (UniProt P29323); assay: as above
Sequence of EPHB2 (P29323 whole entry, looked up): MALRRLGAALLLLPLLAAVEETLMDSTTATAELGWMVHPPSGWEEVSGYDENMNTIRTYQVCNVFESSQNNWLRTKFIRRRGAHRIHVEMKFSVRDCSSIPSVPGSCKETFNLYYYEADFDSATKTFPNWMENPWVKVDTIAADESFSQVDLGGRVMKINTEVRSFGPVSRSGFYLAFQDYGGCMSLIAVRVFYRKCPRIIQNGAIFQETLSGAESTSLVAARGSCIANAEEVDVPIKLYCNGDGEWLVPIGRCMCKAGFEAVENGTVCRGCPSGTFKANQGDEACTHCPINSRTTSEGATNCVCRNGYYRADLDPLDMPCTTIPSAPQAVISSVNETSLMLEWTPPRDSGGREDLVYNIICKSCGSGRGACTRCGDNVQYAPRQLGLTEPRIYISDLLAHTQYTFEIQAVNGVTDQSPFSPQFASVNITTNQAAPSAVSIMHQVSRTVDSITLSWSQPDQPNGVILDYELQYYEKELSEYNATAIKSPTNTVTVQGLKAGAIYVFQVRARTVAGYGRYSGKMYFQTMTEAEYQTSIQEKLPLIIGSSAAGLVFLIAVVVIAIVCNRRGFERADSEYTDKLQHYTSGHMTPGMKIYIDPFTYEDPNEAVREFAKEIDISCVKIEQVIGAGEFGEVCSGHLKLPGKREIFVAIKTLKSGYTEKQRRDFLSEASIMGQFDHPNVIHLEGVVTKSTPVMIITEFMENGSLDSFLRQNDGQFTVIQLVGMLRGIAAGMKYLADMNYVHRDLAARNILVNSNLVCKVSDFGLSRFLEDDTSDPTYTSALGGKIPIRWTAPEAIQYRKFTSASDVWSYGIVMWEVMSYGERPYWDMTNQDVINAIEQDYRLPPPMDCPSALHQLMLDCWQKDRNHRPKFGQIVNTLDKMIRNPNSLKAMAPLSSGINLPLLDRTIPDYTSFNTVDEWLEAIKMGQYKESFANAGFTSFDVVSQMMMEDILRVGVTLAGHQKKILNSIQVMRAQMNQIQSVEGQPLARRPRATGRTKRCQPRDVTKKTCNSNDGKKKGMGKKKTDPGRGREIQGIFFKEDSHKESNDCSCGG

[8] = target: Jak2 (UniProt O60674); assay: as above
[9] = test system: c-Abl (mouse); assay: as above
[10] = test system: AncSZ; assay: as above
[11] = target: MERTK (UniProt Q12866); assay: as above
[12] = test system: c-Src; assay: as above
[13] = target: FGFR3 (UniProt P22607); assay: as above
Sequence of FGFR3 (P22607 whole entry, looked up): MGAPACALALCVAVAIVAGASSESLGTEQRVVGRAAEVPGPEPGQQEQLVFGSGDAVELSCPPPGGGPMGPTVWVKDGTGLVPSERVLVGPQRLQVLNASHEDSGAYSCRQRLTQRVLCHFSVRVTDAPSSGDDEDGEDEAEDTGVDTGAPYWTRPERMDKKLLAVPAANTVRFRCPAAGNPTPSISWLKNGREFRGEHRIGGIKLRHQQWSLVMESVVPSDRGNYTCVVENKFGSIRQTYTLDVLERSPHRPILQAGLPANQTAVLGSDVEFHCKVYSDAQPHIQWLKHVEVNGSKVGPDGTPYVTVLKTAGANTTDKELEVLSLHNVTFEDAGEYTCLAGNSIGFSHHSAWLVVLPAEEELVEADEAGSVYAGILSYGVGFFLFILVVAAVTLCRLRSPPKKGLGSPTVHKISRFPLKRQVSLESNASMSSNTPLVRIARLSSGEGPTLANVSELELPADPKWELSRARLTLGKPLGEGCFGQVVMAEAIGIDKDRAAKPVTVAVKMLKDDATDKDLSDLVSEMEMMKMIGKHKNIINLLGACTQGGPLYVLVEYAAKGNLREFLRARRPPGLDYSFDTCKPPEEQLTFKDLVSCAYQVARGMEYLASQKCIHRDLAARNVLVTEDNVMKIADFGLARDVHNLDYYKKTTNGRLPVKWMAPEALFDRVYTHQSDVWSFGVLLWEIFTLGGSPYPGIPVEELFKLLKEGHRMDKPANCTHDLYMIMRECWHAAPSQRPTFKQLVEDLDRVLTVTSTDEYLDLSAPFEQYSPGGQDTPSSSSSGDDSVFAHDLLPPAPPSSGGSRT

[14] = target: Grb2 SH2 (UniProt P62993); assay: SH2 binding enrichment of the phosphorylated peptide, bacterial display (enrichment ratio); higher = better substrate or ligand; peptides without Tyr show the background
[15] = target: c-Src SH2; assay: as above
[16] = target: SHP2-C SH2; assay: as above
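For SH2 binding enrichment of the phosphorylated peptide, bacterial display in this document: peptide library displayed on the E. coli surface as eCPX fusions, selected cells deep-sequenced, score is each peptide's frequency after selection divided by its frequency in the input.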
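For phosphorylation enrichment, bacterial display in this document: 11-residue human phosphosite peptides and single-mutation variants displayed on the E. coli surface, counted by deep sequencing, each peptide's frequency after selection divided by its frequency in the unselected input library; frequency after pTyr selection over input frequency; kinase dosed for 20-30% of maximal phosphorylation in three min.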

Sequence of EPHB1 (P54762 whole entry, looked up): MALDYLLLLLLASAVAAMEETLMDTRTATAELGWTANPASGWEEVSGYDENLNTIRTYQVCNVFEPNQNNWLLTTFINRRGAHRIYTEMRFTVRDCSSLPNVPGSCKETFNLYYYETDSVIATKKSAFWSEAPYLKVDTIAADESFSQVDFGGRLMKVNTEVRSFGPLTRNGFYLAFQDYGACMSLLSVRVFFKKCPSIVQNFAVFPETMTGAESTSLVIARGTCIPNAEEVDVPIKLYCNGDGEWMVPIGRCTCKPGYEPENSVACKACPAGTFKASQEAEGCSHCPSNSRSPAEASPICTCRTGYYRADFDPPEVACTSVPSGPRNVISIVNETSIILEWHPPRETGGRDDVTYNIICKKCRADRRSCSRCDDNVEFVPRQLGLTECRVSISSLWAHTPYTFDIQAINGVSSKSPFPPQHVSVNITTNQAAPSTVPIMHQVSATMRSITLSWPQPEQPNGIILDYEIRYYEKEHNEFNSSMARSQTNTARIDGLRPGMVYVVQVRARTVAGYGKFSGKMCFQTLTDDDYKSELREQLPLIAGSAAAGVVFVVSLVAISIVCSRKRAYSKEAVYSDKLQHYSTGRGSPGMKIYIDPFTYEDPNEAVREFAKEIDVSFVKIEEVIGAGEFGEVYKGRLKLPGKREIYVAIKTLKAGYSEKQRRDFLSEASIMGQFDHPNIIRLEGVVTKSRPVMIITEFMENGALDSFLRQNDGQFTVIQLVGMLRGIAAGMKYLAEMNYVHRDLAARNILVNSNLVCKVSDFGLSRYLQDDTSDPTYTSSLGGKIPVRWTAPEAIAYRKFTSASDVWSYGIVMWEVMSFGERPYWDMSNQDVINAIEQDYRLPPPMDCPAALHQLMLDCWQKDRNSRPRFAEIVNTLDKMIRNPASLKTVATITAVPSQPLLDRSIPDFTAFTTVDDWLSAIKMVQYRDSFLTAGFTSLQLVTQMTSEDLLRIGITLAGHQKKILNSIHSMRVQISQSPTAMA
Sequence of FGFR1 (P11362 whole entry, looked up): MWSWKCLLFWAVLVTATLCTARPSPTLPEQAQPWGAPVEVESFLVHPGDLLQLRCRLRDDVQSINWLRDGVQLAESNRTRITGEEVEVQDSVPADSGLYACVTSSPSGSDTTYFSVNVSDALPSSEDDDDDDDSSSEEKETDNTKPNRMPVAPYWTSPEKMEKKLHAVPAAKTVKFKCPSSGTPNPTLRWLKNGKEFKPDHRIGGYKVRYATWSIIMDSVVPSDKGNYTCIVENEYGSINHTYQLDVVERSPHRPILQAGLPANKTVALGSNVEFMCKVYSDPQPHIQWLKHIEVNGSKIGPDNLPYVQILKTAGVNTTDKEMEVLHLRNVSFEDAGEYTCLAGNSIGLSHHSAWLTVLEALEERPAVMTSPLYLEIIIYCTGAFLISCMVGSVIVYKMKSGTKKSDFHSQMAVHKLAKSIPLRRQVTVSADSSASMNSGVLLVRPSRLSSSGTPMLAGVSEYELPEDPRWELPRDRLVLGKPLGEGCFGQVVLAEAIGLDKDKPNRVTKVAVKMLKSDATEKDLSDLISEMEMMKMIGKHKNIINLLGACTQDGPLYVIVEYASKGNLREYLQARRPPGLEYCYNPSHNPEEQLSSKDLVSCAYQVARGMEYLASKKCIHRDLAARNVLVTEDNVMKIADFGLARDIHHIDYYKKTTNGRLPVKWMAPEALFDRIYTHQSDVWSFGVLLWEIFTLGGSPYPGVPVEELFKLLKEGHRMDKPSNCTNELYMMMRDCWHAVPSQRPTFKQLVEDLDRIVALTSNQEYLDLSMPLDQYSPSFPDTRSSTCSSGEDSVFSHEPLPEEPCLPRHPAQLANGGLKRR
Sequence of Fyn (P06241 whole entry, looked up): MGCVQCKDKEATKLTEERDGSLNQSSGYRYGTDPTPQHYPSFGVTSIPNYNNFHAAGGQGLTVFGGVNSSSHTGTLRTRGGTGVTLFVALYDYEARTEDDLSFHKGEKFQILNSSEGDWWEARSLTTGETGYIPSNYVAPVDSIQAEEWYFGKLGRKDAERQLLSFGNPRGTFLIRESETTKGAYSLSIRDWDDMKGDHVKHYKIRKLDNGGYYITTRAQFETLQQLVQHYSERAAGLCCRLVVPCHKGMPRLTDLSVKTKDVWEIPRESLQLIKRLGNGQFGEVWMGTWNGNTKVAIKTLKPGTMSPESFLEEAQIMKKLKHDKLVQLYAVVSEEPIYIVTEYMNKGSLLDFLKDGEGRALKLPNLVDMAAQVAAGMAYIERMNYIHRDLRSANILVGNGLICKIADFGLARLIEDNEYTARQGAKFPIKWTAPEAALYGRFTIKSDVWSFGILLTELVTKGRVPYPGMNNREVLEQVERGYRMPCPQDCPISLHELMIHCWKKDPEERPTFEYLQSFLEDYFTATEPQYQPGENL
Sequence of Fes (P07332 whole entry, looked up): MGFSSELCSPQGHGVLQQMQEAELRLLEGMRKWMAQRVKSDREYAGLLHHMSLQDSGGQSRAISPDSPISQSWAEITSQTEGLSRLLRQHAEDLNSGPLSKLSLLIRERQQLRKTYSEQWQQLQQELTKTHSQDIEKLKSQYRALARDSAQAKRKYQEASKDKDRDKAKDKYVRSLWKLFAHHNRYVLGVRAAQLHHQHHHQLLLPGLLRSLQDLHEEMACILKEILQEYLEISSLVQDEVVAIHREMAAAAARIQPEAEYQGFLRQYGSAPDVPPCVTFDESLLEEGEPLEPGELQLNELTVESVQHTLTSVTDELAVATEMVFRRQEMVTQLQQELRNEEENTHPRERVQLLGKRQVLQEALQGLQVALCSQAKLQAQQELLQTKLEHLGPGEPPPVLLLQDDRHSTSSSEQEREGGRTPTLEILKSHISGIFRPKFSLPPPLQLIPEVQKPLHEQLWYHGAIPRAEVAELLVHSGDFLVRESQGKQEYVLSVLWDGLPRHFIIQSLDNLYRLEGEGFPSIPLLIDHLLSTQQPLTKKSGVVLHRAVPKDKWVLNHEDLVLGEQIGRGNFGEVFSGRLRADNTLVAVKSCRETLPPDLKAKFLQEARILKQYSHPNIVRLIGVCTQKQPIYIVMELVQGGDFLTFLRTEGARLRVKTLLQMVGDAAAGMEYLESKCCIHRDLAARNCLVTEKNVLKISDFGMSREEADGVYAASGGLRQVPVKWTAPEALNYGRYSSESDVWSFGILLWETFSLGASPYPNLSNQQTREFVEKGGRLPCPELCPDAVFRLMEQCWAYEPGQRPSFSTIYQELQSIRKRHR

Sequence	SH2 binding enrichment [14]	SH2 binding enrichment [15]	SH2 binding enrichment [16]	phosphorylation enrichment [1]	phosphorylation enrichment [2]	phosphorylation enrichment [3]	phosphorylation enrichment [4]	phosphorylation enrichment [5]	phosphorylation enrichment [6]	phosphorylation enrichment [7]	phosphorylation enrichment [8]	phosphorylation enrichment [9]	phosphorylation enrichment [10]	phosphorylation enrichment [11]	phosphorylation enrichment [12]	phosphorylation enrichment [13]
DRLASSLDKVR [KRT10_Y160_Y160S]	0.974	0.422	0.846	0.412	0.423	0.34	0.308	0.663	0.35	0.364	0.473	0.468	0.438	0.331	0.333	0.415
TFMKKYPKVFL [CNBD1_Y70_Q69K]	1.12	1.17	1.52	0.393	0.357	0.508	0.366	0.662	0.485	0.419	0.642	0.548	3.41	0.404	0.447	0.419
FIRRDYEACKA [BBS4_Y48_K46R_YF]	0.918	0.682	1.01	0.434	0.525	0.514	0.442	0.758	0.45	0.59	0.573	0.549	0.761	0.4	0.616	0.494
HNLDYYKQTTN [FGFR3_Y648_K650Q]	0.656	0.839	0.883	0.585	0.714	0.786	0.704	1.01	3.5	0.536	1.27	0.793	0.979	0.658	0.476	2.61
RLLRGYDQFAY [HLA-C_Y137_S140F]	1.47	1.65	1.14	0.502	0.395	0.422	0.49	0.848	0.49	0.433	0.567	0.775	0.794	0.433	0.514	0.617
DVFRQYASLRG [GANAB_Y379_T383R]	0.842	1.57	31	0.295	0.393	0.329	0.404	0.625	0.453	0.435	0.504	0.459	0.482	0.384	0.399	0.41
VLPIDYFFPPQ [AR_Y552_YF]	0.986	0.696	0.882	0.35	0.574	0.708	0.604	0.82	11.5	0.914	0.969	0.502	2.91	0.459	0.522	9.06
PIFLFYLMDLS [ITGB2_Y131_D128Y_YF]	0.61	0.567	0.874	1.24	0.613	2.51	0.95	3.28	0.702	1.01	3.98	1.91	2.78	0.914	1.12	1.31
ERFAFYRDSPR [FOXE3_Y108]	0.774	0.522	0.751	0.404	0.49	0.456	0.523	0.785	0.474	0.51	0.835	0.625	0.889	0.489	0.587	0.566
RLRKFYLGKFL [KLB_Y906_YF]	0.679	0.444	0.549	0.468	0.689	0.393	0.654	0.624	0.669	0.462	0.608	0.719	0.631	0.645	0.707	0.64
LLTALYFISWG [KCNH2_Y780_R784W]	1.01	0.666	0.891	0.782	1.59	1.04	2.03	1.58	0.847	0.786	1.95	1.09	1.51	3.92	2.27	1.23
LPKEQYLCTKE [AFG3L2_Y614_Y616C]	0.883	0.584	0.533	0.562	0.466	0.463	0.409	1.01	0.482	0.428	0.868	0.723	0.858	0.409	0.427	0.653
RNGDRYFKGIV [DCX_Y64]	0.995	0.548	0.714	0.549	0.665	0.335	0.419	0.632	0.444	0.619	0.626	0.664	0.709	0.433	0.455	0.483
ARDVIYIIIPA [FRKtide_2014]	1.82	1.44	2.09	0.559	0.873	2.48	1.23	1.36	2.92	0.986	1.42	1.17	1.31	2.21	1.52	2
GLAELYEYKKK [CKAP5_Y1854]	1.26	0.671	1.31	0.32	0.569	0.479	0.924	0.719	0.7	0.397	0.393	0.464	0.671	0.303	0.489	0.546
GQECKYPPTQD [METAP2_Y137_E136K]	1.04	0.63	0.689	0.511	0.515	0.521	0.52	1.14	0.569	0.507	1.03	0.727	0.86	0.553	0.504	0.638
MTFQNYRQALF [FAM20C_Y279_G280R]	1.13	0.51	0.792	0.451	0.576	0.477	0.469	1.02	0.444	0.572	0.867	0.657	0.909	0.494	0.462	0.57
RHNEIYEIKVD [LGR5_Y387]	1.09	0.479	0.629	0.915	8.54	0.312	6.57	1.18	0.724	0.671	1.86	0.768	1.12	0.616	8.99	1.02
TVQIMYGCDVG [HLA-A_Y123_I119V]	0.861	0.545	0.553	0.611	0.575	0.676	0.567	1.22	0.539	0.773	0.955	0.737	0.945	0.444	0.47	0.917

The next lines start with results.

SH2 binding enrichment [14]	SH2 binding enrichment [15]	SH2 binding enrichment [16]	Sequence	phosphorylation enrichment [1]	phosphorylation enrichment [2]	phosphorylation enrichment [3]	phosphorylation enrichment [4]	phosphorylation enrichment [5]	phosphorylation enrichment [6]	phosphorylation enrichment [7]	phosphorylation enrichment [8]	phosphorylation enrichment [9]	phosphorylation enrichment [10]	phosphorylation enrichment [11]	phosphorylation enrichment [12]	phosphorylation enrichment [13]
0.787	0.451	0.62	GGFTCCCDGKK [PROS1_Y266_Y266C_YF]	0.542	0.463	0.736	0.504	1.34	0.509	0.659	1.16	0.977	1.12	0.468	0.546	0.755
0.691	0.559	0.682	LHAAAYRNALA [UQCRC2_Y182]	0.33	0.55	0.362	0.484	0.871	0.415	0.491	0.594	0.303	0.686	0.407	0.398	0.402
1.77	1.27	1.62	SIFKDYFRFNF [PLA2G2D_Y85_YF]	0.428	0.495	0.523	0.481	1.19	3.99	0.537	2.8	0.821	1.18	0.579	0.643	2.58
1.06	0.501	0.563	SLGSPYGQPPR [PDLIM4_Y137]	0.356	0.553	0.413	0.365	0.771	0.426	0.448	0.484	0.486	0.747	0.378	0.461	0.526
1.94	1.44	2.83	YMLYQYLKQIE [RPAP3_Y569_D564Y]	6.78	1.56	13.3	5.99	1.11	6.02	10.5	1.85	1.6	1.53	8.62	2.25	4.47
0.778	2.15	1.21	AEDKPYAELWM [MPI_Y46]	10.8	2.27	0.868	1.44	1.34	1.45	0.729	1.09	0.854	1.38	1.4	3.47	1.34
1.01	0.854	1.19	KRAAIYNPVIF [RHO_Y301_S297R_YF]	10.4	1.91	0.432	4.07	0.841	0.492	0.55	0.738	0.741	0.725	2.69	2.22	0.541
0.947	0.595	0.749	RSDEDYLCREE [POR_Y573_Y575C]	0.951	0.716	0.747	0.769	2.34	0.623	0.737	1.34	1.01	1.54	0.785	0.765	1.27
0.851	1.28	0.698	MKVPVYETPAG [PGM5_Y358]	11.6	6.27	11.7	7.86	1.08	0.492	18.2	0.903	18.2	1.57	5.35	5.2	0.649
0.806	0.64	0.512	SVVVPYEPPKV [TP53_Y220_E224K]	0.45	0.387	0.474	0.465	0.837	0.41	0.59	0.822	0.895	0.827	0.366	0.465	0.612
